In patent US7227009B2, “MT-SP1 polynucleotides and polypeptides” (Catalyst Biosciences, Inc., priority 1999, dated 2007):
Like-named read-outs stand apart in the source and are kept apart here.

Legend:
[1] = target: T1, His-MT-SP1 protease domain (Homo sapiens, UniProt Q9Y5Y6); assay: Substrate kinetics of purified His-MT-SP1 protease domain; format: biochemical
T1 construct: made in house; host or cells: E. coli X-90 (pQE30 vector)
Protocol: The purified serine protease domain was titrated with 4-methylumbelliferyl p-guanidinobenzoate (MUGB) to obtain an accurate concentration of enzyme active sites^(iii). Enzyme activity was monitored at 25° C. in assay buffer containing 50 mM Tris pH 8.8, 50 mM NaCl, and 0.01% Tween 20. The final concentration of substrate Spectrozyme tPA ranged from 1 μM–400 μM. Enzyme concentrations ranged from 40 pM–800 pM. Active site titrations were performed on a Fluoromax-2 spectrofluorimeter. Measurements were plotted using the KaleidaGraph program (Synergy, Reading, Pa.), and the Km, kcat, and kcat/Km for Spectrozyme tPA was determined using the Michaelis-Menten equation.

[2] = target: T2, His-tagged MT-SP1 serine protease domain (Homo sapiens, UniProt Q9Y5Y6); assay: Inhibition of MT-SP1 protease domain with ecotin and ecotin M84R/M85R; format: biochemical
T2 construct: made in house; host or cells: E. coli X-90 (pQE30 vector)
T2 sequence (Q9Y5Y6 615-855 limits assumed, other chains not shown): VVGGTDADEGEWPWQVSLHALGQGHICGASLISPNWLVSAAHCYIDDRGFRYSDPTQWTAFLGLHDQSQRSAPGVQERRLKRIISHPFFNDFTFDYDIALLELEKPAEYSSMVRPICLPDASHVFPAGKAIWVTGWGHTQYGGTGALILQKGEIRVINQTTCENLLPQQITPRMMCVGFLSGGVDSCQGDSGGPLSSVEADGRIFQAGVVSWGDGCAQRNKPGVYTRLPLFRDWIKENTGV
Protocol: Ecotin and ecotin M84R/M85R were purified from E. coli as described in copending application Ser. Nos. 09/290,513 and 09/289,830, both filed on Apr. 12, 1999. Various concentrations of ecotin or ecotin M84R/M85R were incubated with the His-tagged serine protease domain in a total volume of 990 μL of buffer containing 50 mM NaCl, 50 mM Tris-HCl (pH 8.8), 0.01% Tween 20. 10 μL of Spectrozyme tPA was added, yielding a solution containing 100 μM substrate. The final enzyme concentration was 63 pM, and the ecotin and ecotin M84R/M85R concentration ranged from 0.1 nM to 50 nM. The data were fit to the equation derived for kinetics of reversible tight-binding inhibitors (Morrison (1969) Biochim. Biophys. Acta 185: 269–286, Williams and Morrison (1979) Methods. Enzymol. 63: 437–467), and the values for apparent Ki were determined.

explanted rat VP = assay: Rodent ventral prostate (VP) explant culture; format: cell-based; details: for ductal branching morphogenesis and differentiation of rat ventral prostate: explant culture, testosterone-induced
Description: One useful model system for studying many issues that are pertinent to prostate cancer is the development of the rodent ventral prostate (VP) in explant cultures. Macromolecular inhibitors of serine proteases of the chymotrypsin fold, ecotin and ecotin M84R/M85R (see copending application Ser. Nos. 09/290,513 and 09/289,830, both filed on Apr. 12, 1999), inhibit ductal branching morphogenesis and differentiation of the explanted rat VP. […] Thus unidentified serine proteases may play a role in growth and prevention of apoptosis in prostate epithelial cells in this system.

PC-3 primary tumor = assay: PC-3 implanted nude mice, inhibitor treatment; format: in vivo; details: treated seven weeks, compared to PBS-treated mice after four weeks
Description: Another well characterized model that is derived from human prostate cancer epithelial cells is the PC-3 cell line (Kaighn et al. (1979) Invest. Urology 17: 16–23). The PC-3 cell line expresses uPA as assayed by enzyme-linked immunosorbent assay (ELISA) and by Northern blotting of PC-3 mRNA (Yoshida et al. (1994) Cancer Res. 54: 3300–3304). […] Metastasis from the primary tumors similarly were similarly lower in the inhibitor-treated mice compared to PBS treated mice. Inhibition was not unexpected with ecotin M84R/M85R treatment, since uPA has been implicated in metastasis. […] Thus identification of the serine proteases expressed by PC-3 prostate cells may provide insight into the role of these proteases in cancer and prostate growth and development. In this example we have extended the strategy of using the polymerase chain reaction (PCR) with degenerate oligonucleotide primers that were designed using conserved sequence homology (Sakanari et al. (1989) Proc. Natl. Acad. Sci. USA 86: 4863–4867; Wiegand et al. (1993) Gene 136: 167–175, Kang et al. (1992) Gene 110: 181–187) to identify additional serine proteases made by cancer cells. […]

uPA [3] = target: T3, uPA (Homo sapiens, UniProt P00749); details: cited from earlier work
PC-3 cells = assay: Subcutaneous coinjection of PC-3 cells with inhibitor; format: in vivo; details: subcutaneous coinjection with PC-3 cells, compared to PC-3 cells and saline
tumor = assay: Ecotin injected intraperitoneally, tumor growth; format: in vivo
uPA [4] = target: T3, uPA; assay: Inhibition of uPA; format: biochemical

T1 sequence (Q9Y5Y6 615-855 limits assumed, other chains not shown): as above

Molecule | hydrolysis of pNA substrate by the MT-SP1 protease domain [1] | inhibition of MT-SP1, in words [2] | apoptosis in rat ventral prostate model (explanted rat VP) | ductal branching morphogenesis and differentiation of rat ventral prostate (explanted rat VP) | primary tumor size (PC-3 primary tumor) | inhibition of uPA, in words (uPA [3]) | inhibitor potency against uPA (uPA [3]) | primary tumor size (PC-3 cells) | tumor growth (tumor) | kcat [1] | Km ([1]; 25° C., 50 mM Tris pH 8.8, 50 mM NaCl, 0.01% Tween 20) | kcat ([1]; 25° C., pH 8.8) | fold more potent inhibitor of uPA compared to ecotin (uPA [4])
NC(N)=NCCC[C@H](N)C(=O)Nc1ccc([N+](=O)[O-])cc1 [H-Arg-pNA, arginyl-pNA] | does not cleave |  |  |  |  |  |  |  |  |  |  |  | 
ecotin: Macromolecular inhibitor of serine proteases of the chymotrypsin fold, purified from E. coli |  | potent, subnanomolar inhibitors | enhances | inhibits | significantly smaller | poor, micromolar inhibitor | 2800 nM | decrease | inhibited |  |  |  | 
hexahydrotyrosyl-Gly-Arg-pNA [Spectrozyme tPA] |  |  |  |  |  |  |  |  |  | 260 s⁻¹ | 31.4 ± 4.2 µM | 2.6×10^2±6.5 s^−1 | 
ecotin M84R/M85R: Engineered version of ecotin, macromolecular inhibitor of chymotrypsin-fold serine proteases (protein) AESVQPLEKIAPYPQAEKGMKRQVIQLTPQEDESTLKVELLIGQTLEVDCNLHRLGGKLENKTLEGWGYDYYVFDKVSSPVSTRRACPDGKKEKKFVTAYLGDAGMLRYNSKLPIVVYTPDNVDVKYRVWKAEEKIDNAVVR |  | potent, subnanomolar inhibitors | enhances | inhibits | significantly smaller |  | 1 nM | decrease |  |  |  |  | 2800 fold
